Among the data in paper PMC8167812 (Cell reports, 2021) are t1/2 values, retold here.

The target of the test is Histone H3 tail peptide H3K9MK14C with a C-terminal biotinylated lysine (fission yeast, C-terminal biotinylated lysine). The test is described as follows: BLI. A general note: BLI is a label-free optical method that tracks binding on a fibre tip over time.

B1: Clr4 SET domain (residue 190–490) (domain or fragment)
chain: NPSKLDSYTHLSFYEKRELFRKKLREIEGPEVTLVNEVDDEPCPSLDFQFISQYRLTQGVIPPDPNFQSGCNCSSLGGCDLNNPSRCECLDDLDEPTHFAYDAQGRVRADTGAVIYECNSFCSCSMECPNRVVQRGRTLPLEIFKTKEKGWGVRSLRFAPAGTFITCYLGEVITSAEAAKRDKNYDDDGITYLFDLDMFDDASEYTVDAQNYGDVSRFFNHSCSPNIAIYSAVRNHGFRTIYDLAFFAIKDIQPLEELTFDYAGAKDFSPVQSQKSQQNRISKLRRQCKCGSANCRGWLFG
In turn, B1 displayed a t1/2 of 9.6 s.
